# Measured values: patent US20190085033A1 (published 2019)
# B1: 4025 (antibody, V domains shown)
# VH: EVQLVQSGAEVKKPGESLKISCKASGYSFSSYWIAWVRQMPGKGLEWMGFIYPADSDTRYSPSFQGQGTISADKSISTAYLQWSSLKASDTAMYYCAILGFWGANRGGGGMDVWGQGTTVIVSS
# VL: SYELTQPPSVSVSPGQTARITCSGDALPEKYAYWYQQKSGQAPVLIIYEDSKRPSGIPERFSGSRSGTMATLTISGAQVDDEADYYCYSTNSGGTFFVFGTGTKVTVLG
# Target: BG505-gp120
# Assay: SPR
binder,measurement,value
B1,Kd,75 nM
